Ends that are not written are not given here.
Assays:
Assay in all cases: Invitrogen ProtoArray Human Protein Microarray v4.0; biotinylated synbody, fluorescently labelled streptavidin; fluorescence intensity above background
ANXA1 = molecular target: T1, ANXA1 (human, UniProt P04083)
T1 construct: GST fusion on the array
T1 sequence (looked up): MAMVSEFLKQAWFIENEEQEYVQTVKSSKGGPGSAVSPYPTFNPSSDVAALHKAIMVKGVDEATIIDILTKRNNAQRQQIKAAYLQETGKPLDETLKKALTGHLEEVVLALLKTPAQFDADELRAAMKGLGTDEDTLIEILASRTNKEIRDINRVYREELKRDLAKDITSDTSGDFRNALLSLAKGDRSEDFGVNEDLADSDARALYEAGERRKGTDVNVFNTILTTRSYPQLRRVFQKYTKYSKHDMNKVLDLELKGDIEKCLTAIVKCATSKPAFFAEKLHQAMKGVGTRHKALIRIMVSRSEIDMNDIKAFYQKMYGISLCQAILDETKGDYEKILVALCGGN
Protocol: (§1) The prescribed cover slip was placed over the array and adjusted to remove air bubbles. The array was incubated in a 50 ml conical tube, printed side up, for 1.5 hours at 4 C without shaking. The array was then removed from the conical tube inserted diagonally into the array chamber, kept on ice. 8 ml probing buffer was added to the chamber wall. The cover slip was removed and the array was incubated in probing buffer for 1 minute on ice. The probing buffer was decanted and drained. Two further washings were performed adding 8 ml probing buffer, incubating on ice for 1 minute, and decanting and draining. 5 nM fluorescently labeled streptavidin diluted in 6 ml probing buffer was incubated on the array for 30 minutes on ice in the dark, after which the solution was decanted and drained. Three wash steps were performed, each by adding 8 ml probing buffer, incubating for 1 minute on ice, decanting, and draining. The array was removed from the chamber, centrifuged at 800×g for 5 minutes at room temperature. The array was dried in the dark for 60 minutes at room temperature, after which it was scanned using a fluorescent microarray scanner and data was taken and analyzed.

NADK = molecular target: T2, NADK (human, UniProt O95544)
T2 construct: GST fusion on the array
T2 sequence (looked up): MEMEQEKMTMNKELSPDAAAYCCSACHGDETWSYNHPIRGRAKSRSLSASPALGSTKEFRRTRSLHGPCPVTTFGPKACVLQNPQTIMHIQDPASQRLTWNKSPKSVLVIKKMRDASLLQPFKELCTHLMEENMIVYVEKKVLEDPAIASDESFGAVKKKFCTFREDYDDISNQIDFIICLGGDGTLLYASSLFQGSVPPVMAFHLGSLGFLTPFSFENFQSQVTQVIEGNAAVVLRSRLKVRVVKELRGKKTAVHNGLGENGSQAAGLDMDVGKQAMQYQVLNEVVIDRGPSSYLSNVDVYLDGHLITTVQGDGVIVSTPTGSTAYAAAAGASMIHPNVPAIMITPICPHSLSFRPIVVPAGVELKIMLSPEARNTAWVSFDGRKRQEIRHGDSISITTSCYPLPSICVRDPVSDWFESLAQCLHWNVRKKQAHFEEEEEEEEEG
Protocol: as §1

ROCK2 = molecular target: T3, ROCK2 (human, UniProt O75116)
T3 construct: GST fusion on the array
T3 sequence (O75116 1-552 limits assumed): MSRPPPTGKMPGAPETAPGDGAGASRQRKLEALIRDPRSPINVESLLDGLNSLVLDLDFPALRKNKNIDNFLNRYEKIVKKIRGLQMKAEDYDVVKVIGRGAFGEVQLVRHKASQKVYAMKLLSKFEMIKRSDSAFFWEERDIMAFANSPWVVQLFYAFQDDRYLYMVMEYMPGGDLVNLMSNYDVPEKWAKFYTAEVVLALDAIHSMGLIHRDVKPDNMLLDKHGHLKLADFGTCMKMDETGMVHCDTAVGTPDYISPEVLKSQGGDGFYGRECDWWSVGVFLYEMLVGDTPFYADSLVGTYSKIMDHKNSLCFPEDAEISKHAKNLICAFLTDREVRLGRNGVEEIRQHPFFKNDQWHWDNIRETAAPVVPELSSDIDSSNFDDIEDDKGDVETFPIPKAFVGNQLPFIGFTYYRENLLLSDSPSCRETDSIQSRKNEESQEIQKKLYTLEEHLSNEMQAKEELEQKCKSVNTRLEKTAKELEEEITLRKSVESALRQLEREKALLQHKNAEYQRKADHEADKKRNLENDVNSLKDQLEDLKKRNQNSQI
Protocol: as §1

PRKAA1 = molecular target: T4, PRKAA1 (human, UniProt Q13131)
T4 construct: GST fusion on the array
T4 sequence (Q13131 whole entry, the tested form may be a part): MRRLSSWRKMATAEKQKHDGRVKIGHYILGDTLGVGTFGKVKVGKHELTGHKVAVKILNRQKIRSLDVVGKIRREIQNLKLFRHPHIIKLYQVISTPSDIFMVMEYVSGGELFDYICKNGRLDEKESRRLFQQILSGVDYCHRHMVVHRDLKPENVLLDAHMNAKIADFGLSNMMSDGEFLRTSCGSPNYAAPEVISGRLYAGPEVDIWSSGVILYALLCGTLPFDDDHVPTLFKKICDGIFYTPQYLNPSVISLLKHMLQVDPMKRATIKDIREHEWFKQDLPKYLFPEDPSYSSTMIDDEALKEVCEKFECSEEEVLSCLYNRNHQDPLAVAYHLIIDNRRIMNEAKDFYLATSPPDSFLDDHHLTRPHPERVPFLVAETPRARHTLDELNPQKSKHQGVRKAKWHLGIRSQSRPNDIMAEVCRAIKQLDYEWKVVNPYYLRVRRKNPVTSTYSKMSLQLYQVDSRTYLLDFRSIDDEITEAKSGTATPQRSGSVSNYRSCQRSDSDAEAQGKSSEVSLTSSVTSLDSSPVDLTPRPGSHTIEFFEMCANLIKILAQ
Protocol: as §1

ABHD14B = molecular target: T5, ABHD14B (human, UniProt Q96IU4)
T5 construct: GST fusion on the array
T5 sequence (looked up): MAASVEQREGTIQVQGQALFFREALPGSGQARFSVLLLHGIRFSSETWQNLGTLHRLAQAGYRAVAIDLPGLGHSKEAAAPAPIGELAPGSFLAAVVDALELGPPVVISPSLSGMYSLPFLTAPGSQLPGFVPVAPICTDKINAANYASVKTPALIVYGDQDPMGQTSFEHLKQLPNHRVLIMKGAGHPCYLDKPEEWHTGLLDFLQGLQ
Protocol: as §1

PTK2 = molecular target: T6, PTK2 (human, UniProt Q05397)
T6 construct: GST fusion on the array
T6 sequence (Q05397 whole entry, the tested form may be a part): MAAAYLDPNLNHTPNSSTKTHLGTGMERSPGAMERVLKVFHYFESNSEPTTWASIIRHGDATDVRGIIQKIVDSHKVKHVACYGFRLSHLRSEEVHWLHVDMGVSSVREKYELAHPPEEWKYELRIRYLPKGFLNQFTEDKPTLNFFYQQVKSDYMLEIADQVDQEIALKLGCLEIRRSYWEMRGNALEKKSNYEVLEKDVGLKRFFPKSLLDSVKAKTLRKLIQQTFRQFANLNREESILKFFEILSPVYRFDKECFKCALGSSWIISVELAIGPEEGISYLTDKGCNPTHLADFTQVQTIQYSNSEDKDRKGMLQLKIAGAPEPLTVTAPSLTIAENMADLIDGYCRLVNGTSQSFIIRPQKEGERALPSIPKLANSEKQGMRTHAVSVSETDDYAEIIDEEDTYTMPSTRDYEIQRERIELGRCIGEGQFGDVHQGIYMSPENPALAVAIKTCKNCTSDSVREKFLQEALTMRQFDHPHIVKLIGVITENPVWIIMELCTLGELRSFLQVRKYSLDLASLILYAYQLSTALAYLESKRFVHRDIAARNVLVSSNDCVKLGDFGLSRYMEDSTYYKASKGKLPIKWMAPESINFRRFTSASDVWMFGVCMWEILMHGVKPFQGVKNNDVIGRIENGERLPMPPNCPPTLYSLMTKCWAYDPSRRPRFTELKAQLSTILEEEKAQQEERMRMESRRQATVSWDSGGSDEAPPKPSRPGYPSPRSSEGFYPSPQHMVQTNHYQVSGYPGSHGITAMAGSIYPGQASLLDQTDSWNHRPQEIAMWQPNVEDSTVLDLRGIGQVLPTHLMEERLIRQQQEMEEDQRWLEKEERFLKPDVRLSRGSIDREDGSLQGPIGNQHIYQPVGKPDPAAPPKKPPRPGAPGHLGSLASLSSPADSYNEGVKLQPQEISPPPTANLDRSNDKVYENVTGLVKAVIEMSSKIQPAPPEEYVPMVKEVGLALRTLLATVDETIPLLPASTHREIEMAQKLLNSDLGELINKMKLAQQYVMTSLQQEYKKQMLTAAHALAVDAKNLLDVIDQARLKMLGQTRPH
Protocol: as §1

LACRT = molecular target: T7, LACRT (human, UniProt Q9GZZ8)
T7 construct: GST fusion on the array
T7 sequence (looked up): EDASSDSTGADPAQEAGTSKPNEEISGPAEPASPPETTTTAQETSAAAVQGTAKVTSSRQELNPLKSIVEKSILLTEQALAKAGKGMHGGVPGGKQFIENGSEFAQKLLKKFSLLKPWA
Protocol: as §1

B1: SYN23-26 (designed binder)
peptide 1: AHKVVPQRQIRHAYNRYGSG
peptide 2: FRGWAHIFFGPHVIYRGGSG
modifications: also: two chains joined by their C-termini to a branching Lys (epsilon/alpha N), Lys linker followed by Cys, Cys thiol biotinylated
notes: Lysine linker followed by cysteine; the thiol of the cysteine biotinylated for the protein array; also called anti-TRF synbody
- binding result (ANXA1): binds
- binding result (NADK): no binding
- binding result (ROCK2): no binding
- binding result (PRKAA1): no binding
- binding result (ABHD14B): no binding
- binding result (PTK2): no binding
- binding result (LACRT): no binding

Source: US20190194358A1 (ARIZONA BOARD OF REGENTS A BODY CORPORATE OF THE STATE OF …, published 2019)
